For 1 molecule, Ka results are on record in publication PMC9082959, “Mechanism of Assembly of the Non-Covalent Spectrin Tetramerization Domain from Intrinsically Disordered Partners” (Journal of molecular biology, 2013).

Numbering of substitutions follows the chain as printed.

What all share (assay): ITC; β16β17 at 25–50 μM in the cell titrated with 15–20 injections to 2–2.5 eq of α0α1; one-site binding model; PBS (50 mM sodium phosphate, 150 mM NaCl, pH 7.04), 25 °C; mutants only against the wild-type partner
Holding throughout (conditions): both partners purified

The target of one assay is T1, β16β17 A20G (human, UniProt P11277 1898-2083, A2023G).
T1 construct: erythrocyte β-spectrin, human, residues 1898-2083 (β16β17); mutant of m2; also called A2023G; source: E. coli C41(DE3), purified (Ni2+ agarose, thrombin cleavage, gel filtration)
T1 sequence (looked up): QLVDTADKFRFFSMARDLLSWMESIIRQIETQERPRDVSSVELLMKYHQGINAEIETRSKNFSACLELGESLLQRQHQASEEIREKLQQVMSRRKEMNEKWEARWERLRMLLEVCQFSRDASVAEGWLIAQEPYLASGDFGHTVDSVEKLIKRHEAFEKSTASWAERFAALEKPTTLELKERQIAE

In the next assay the target is T2, β16β17 R13A (human, UniProt P11277 1898-2083, R2016A).
T2 construct: erythrocyte β-spectrin, human, residues 1898-2083 (β16β17); mutant of m2; also called R2016A; source: E. coli C41(DE3), purified (Ni2+ agarose, thrombin cleavage, gel filtration)
T2 sequence (looked up): T1 sequence (looked up) with R119A, G126A

A further assay has as its target T3, β16β17 K67G (human, UniProt P11277 1898-2083, K2070G).
T3 construct: erythrocyte β-spectrin, human, residues 1898-2083 (β16β17); mutant of m2; also called K2070G; source: E. coli C41(DE3), purified (Ni2+ agarose, thrombin cleavage, gel filtration)
T3 sequence (looked up): T1 sequence (looked up) with G126A, K173G

The target of the next assay is T4, β16β17 K46G (human, UniProt P11277 1898-2083, K2049G).
T4 construct: erythrocyte β-spectrin, human, residues 1898-2083 (β16β17); mutant of m2; also called K2049G; source: E. coli C41(DE3), purified (Ni2+ agarose, thrombin cleavage, gel filtration)
T4 sequence (looked up): T1 sequence (looked up) with G126A, K152G

In the next assay the target is T5, β16β17 C9G (human, UniProt P11277 1898-2083, C2012G).
T5 construct: erythrocyte β-spectrin, human, residues 1898-2083 (β16β17); mutant of m2; also called C2012G; source: E. coli C41(DE3), purified (Ni2+ agarose, thrombin cleavage, gel filtration)
T5 sequence (looked up): T1 sequence (looked up) with C115G, G126A

For a further assay, the target named is T6, β16β17 A24G (human, UniProt P11277 1898-2083, A2027G).
T6 construct: erythrocyte β-spectrin, human, residues 1898-2083 (β16β17); mutant of m2; also called A2027G; source: E. coli C41(DE3), purified (Ni2+ agarose, thrombin cleavage, gel filtration)
T6 sequence (looked up): T1 sequence (looked up) with G126A, A130G

B1: α0α1 (erythrocyte α-spectrin residues 2–163), wild type (domain or fragment, human, UniProt P02549 2-163, looked up)
chain: EQFPKETVVESSGPKVLETAEEIQERRQEVLTRYQSFKERVAERGQKLEDSYHLQVFKRDADDLGKWIMEKVNILTDKSYEDPTNIQGKYQKHQSLEAEVQTKSRLMSELEKTREERFTMGHSAHEETKAHIEELRHLWDLLLELTLEKGDQLLRALKFQQY
notes: synthetic gene (GenScript) in a modified pRSETA plasmid; also called α1α0; source: E. coli C41(DE3), purified (Ni2+ agarose, thrombin cleavage, gel filtration)
As for B1, the Ka was found to be 530000 M⁻¹ in the assay with β16β17 A20G; 980000 M⁻¹ with β16β17 R13A; 140000 M⁻¹ with β16β17 K67G; 230000 M⁻¹ in the assay with β16β17 K46G; 470000 M⁻¹ with β16β17 C9G; 242000 M⁻¹ with β16β17 A24G.
